According to US20060003399A1, “High throughput actin polymerization assay” (Cytokinetics, Inc., priority 2004, published 2006):

Assays:
[1] = Solubility of purified full-length WASP / N-WASP; assay type: physicochemical; details: purified TAP-tag protein from 293 cells
Arp2/3 = experiment: Activities of WASP/N-WASP proteins (Table 4); assay type: biochemical
Excerpt: The term “variant” or “analogue” generally refers to proteins that are functional equivalents to a native sequence that have similar amino acid sequences and retain, to some extent, one of the activities of the corresponding native protein. Variants/analogues include fragments that retain one or more activities of the corresponding native protein. Examples of WASP and N-WASP activity include, but are not limited to, capacity to: 1) bind Arp2/3 and actin; 2) activate the actin nucleation activity of Arp2/3 (descriptions of assays to detect nucleation activity are provided below); 3) bind an upstream regulator; 4) be regulated by one or more upstream regulators, thereby rendering the WASP or N-WASP protein able to activate the nucleation activity of Arp2/3; and 5) bind downstream regulators initiating signal transduction cascades. Some of the WASP and N-WASP proteins that are provided are able to recapitulate the full activity of WASP or N-WASP, which means that these proteins have all five of the activities just listed. […]
A third class of NPF proteins that can be utilized in some assays include WASP, N-WASP and SCAR proteins that include the WH1 domain but in which the PolyPro region is (e.g., deleted). A fourth class of NPF proteins that can be utilized in some assays are WASP, N-WASP and SCAR deletion mutants in which the PolyPro region is maintained but an N-terminal region (e.g., WH1 domain) is at least partially removed. Some proteins in this class are ones that include the B, CRIB/GBD (WASP and N-WASP), PolyPro and VCA domains, but in which some or all of the WH1 has been removed. One specific example is 98N-WASP, which includes amino acids 98-501 of SEQ ID NO:4. Another specific example is the 105WASP protein, which includes amino acids 105-501 of SEQ ID NO:2 (see FIG. 4B).
As indicated in this table, specific examples of fusion proteins that can be utilized include those that include a segment that encodes full-length WASP or N-WASP, including: Myc-WASP-TAP (SEQ ID NO:14); and Myc-N-WASP-TAP (SEQ ID NO: 16). Examples of fusion proteins that include a WASP or N-WASP deletion mutant domain include: GST-105WASP (SEQ ID NO:18); Myc-105WASP-TAP (SEQ ID NO:20); GST-tev-98N-WASP (SEQ ID NO:22); and Myc-98N-WASP-TAP (SEQ ID NO:24). The TAP tag in these particular fusion proteins has the general structure CBP-tev-ProtA (SEQ ID NO:36). Fusion proteins such as those listed in Table 4 can in some instances be utilized directly, or after one or both of the C- and N-terminal tags are removed. For example, the fusion proteins listed in Table 4 as having a TAP tag can be used once the TAP tag has been cleaved off and/or after the C-terminal tag has been removed.

Arp2/3 complex = molecular target: T1, Arp2/3 complex; experiment: Actin polymerization assay comparing FL-WASP/N-WASP and truncated forms of WASP; assay type: biochemical, human; details: without activators, FIG. 7
T1 construct: from tissue
Description: 1. A cellular extract containing Arp2/3 complex was prepared from an Arp2/3 source such as human platelets (see, e.g., U.S. Provisional Application No. 60/578,969, filed Jun. 10, 2004; Welch and Mitchison (Meth. Enzymology 298:52-61,1988); and Higgs, H. N. et al. (Biochemistry 38:15212-15222, 1999), all of which are incorporated herein by reference in their entirety for all purposes).
Samples containing candidate agents (individually or as mixtures) are placed into wells on a multi-well plate. Mix 1 is added to each of the wells and mixed with the candidate agent. A sample of Mix 2 is then introduced into each well and the resulting mixture thoroughly mixed. Typically, Mix 1 and Mix 2 are mixed in 1:1 ratio (e.g., 50 μl each of Mix 1 and Mix 2).
Actin polymerization is measured as a function of time by exciting pyrene at 365 nm and by detecting an increase in fluorescence emission at 407 nm, or by exciting acrylodan at 405 nm and by detecting an increase in fluorescence emission at 460 nm. The change in fluorescence over time is utilized to determine a fluorescence parameter (e.g., maximal velocity, time to half maximal fluorescence intensity, or area under the curve of a plot of fluorescence versus time; see e.g., FIGS. 5A-5F).
Arp2/3 was purified as described in Example 1. […]

B1: FL-N-WASP: full length human N-WASP (SEQ ID NO:4), nucleation promoting factor (protein, listed as Homo sapiens)
chain: MSSVQQQPPPPRRVTNVGSLLLTPQENESLFTFLGKKCVTMSSAVVQLYAADRNCMWSKKCSGVACLVKDNPQRSYFLRIFDIKDGKLLWEQELYNNFVYNSPRGYFHTFAGDTCQVALNFANEEEAKKFRKAVTDLLGRRQRKSEKRRDPPNGPNLPMATVDIKNPEITTNRFYGPQVNNISHTKEKKKGKAKKKRLTKADIGTPSNFQHIGHVGWDPNTGFDLNNLDPELKNLFDMCGISEAQLKDRETSKVIYDFIEKTGGVEAVKNELRRQAPPPPPPSRGGPPPPPPPPHNSGPPPPPARGRGAPPPPPSRAPTAAPPPPPPSRPSVAVPPPPPNRMYPPPPPALPSSAPSGPPPPPPSVLGVGPVAPPPPPPPPPPPGPPPPPGLPSDGDHQVPTTAGNKAALLDQIREGAQLKKVEQNSRPVSCSGRDALLDQIRQGIQLKSVADGQESTPPTPAPTSGIVGALMEVMQKRSKAIHSSDEDEDEDDEEDFEDDDEWED
modifications: (1)..(505) FL-N-WASP
solubility (in words) [1]: completely soluble
Activate Arp2/3? (Arp2/3): Yes
Regulated By Which Upstream Regulators? (Arp2/3): Cdc42, PIP2, Nck, Rac1
stimulation of actin polymerization by the protein alone (in words) (Arp2/3 complex): weakly stimulate actin polymerization
